This is an account of results in patent US20100221257A1 (AstraZeneca / MedImmune, published 2010).

Positions count from the first letter of the chain named.

In assay [1] the target is T1, human histidine tagged (HIS) IL1RFc fusion protein (human).
T1 construct: Biotinylated or cryptate labelled in some assays; also called human HIS IL1RFc; huIL-1R1-Fc
As to the kind of experiment: HTRF receptor-ligand assay, scFv inhibiting HIS FLAG IL-1β binding to human HIS IL1RFc; incomplete inhibition curve, value estimated; incomplete inhibition curve; IC50 estimated. The protocol:
(§1) After pre-incubation of the assay plates, 5 μl of 4 nM HIS FLAG IL1 beta was added. This was followed by 5 μl of 20 nM anti-FLAG IgG labelled with XL665 (CIS Bio international 61FG2XLB) and 5 μl of 3.2 nM anti-human Fc IgG labelled with cryptate (CIS Bio International 61HFCKLB). All dilutions were performed in phosphate buffered saline (PBS) containing 0.4 M potassium fluoride and 0.1% BSA (assay buffer).
(§2) Purified scFv from positive clones identified from screening were tested in either of the above receptor-ligand HTRF® assays for inhibition of binding of human HIS FLAG tagged IL1 beta to human HIS IL1RFc. A skilled person could modify these assays to test IgG or other inhibitor formats. A titration of scFv concentrations was used in order to establish the clone potency as measured by IC₅₀ values in the assay. All dilutions were carried out in assay buffer. 5 μl of a titration of purified scFv sample was added to a 384 well low volume assay plate (Costar 3676). This was then followed by addition of 2 nM human HIS IL1RFc (when using in house HIS IL1 beta) or 8 nM HIS IL1RFc (when using Alexis source IL1 beta) to a volume of 20 μl. Assay plates were then sealed and incubated at room temperature in dark for 1 hour. The subsequent addition steps were carried out as exactly as described for crude scFv containing periplasmic extracts.

For assay [2], the target named is Antibody 6 (Eu3+ cryptate labelled, Example 5). As to the kind of experiment: HTRF competition: unlabelled test protein against biotin labelled human IL-1R1/Fc binding to cryptate labelled antibody. The protocol: (§3) Antibody was cryptate labelled with Eu³′ Cryptate labelling kit according to the manufacturer's instructions (CisBio International Cat No. 62EUSPEA) and IL-1R1/Fc (SEQ ID NO: 134, see Material and Methods) was Biotin labelled with EZ Link Sulfo-NHS-Biotin (Perbio Cat No. 21335) according to the manufacturer's instructions. Assay conditions were 0.25 nM Cryptate labelled antibody, 0.3 nM biotin labelled IL-1R1/Fc, 2.5 nM streptavidin XL^{ent!} (CisBio International Cat. No. 611SAXLB) in 1×D-PBS, 0.1% BSA, 0.4M potassium fluoride in a total volume of […] in a 384 well shallow well costar plate (3676). To the assay a dilution series (from maximum of 100 nM to 0.0017 nM) of test proteins was added and the assay incubated for 3 hours at room temperature. FRET signal was detected using a PerkinElmer EnVision plate reader using a 320 nm excitation filter and 620 nm and 665 nm emission filters. Results were calculated from the 665/620 ratio as a percentage of specific binding (signal with no competitor antigen). Results were analysed with Prism (GraphPad Software) using the sigmoidal dose response model.
Antibody binding of chimeric molecules was tested in an HTRF (Homogeneous Time Resolved Fluorescence) competition assay. Molecules which bound antibody at the same paratope as human IL-1R1 inhibited the binding interaction, leading to a reduction in signal. From inhibition curves IC₅₀ values for human IL-1R1, mouse IL-1R1 and chimeric molecules were calculated (Table 12). […] Chimeras that gave similar IC₅₀ values to native human IL-1R1 still contained the epitope.
(In general: TR-FRET usually uses a lanthanide donor and a delayed reading to cut background.)

For assay [3] the target is unchanged. Briefly: HTRF competition assay, against human IL-1R1 as reference. Here is the method:
as §3
Antibody binding of chimeric molecules was tested in an HTRF (Homogeneous Time Resolved Fluorescence) competition assay. […] From inhibition curves IC₅₀ values for human IL-1R1, mouse IL-1R1 and chimeric molecules were calculated (Table 12). […]

The target of assay [4] is T2, cynomolgus monkey HIS IL1RFc (cynomolgus monkey).
T2 construct: also called Cyno his IL1RFc; CynoIL1-R1-Fc
T2 sequence (chain, as listed by the source limits assumed): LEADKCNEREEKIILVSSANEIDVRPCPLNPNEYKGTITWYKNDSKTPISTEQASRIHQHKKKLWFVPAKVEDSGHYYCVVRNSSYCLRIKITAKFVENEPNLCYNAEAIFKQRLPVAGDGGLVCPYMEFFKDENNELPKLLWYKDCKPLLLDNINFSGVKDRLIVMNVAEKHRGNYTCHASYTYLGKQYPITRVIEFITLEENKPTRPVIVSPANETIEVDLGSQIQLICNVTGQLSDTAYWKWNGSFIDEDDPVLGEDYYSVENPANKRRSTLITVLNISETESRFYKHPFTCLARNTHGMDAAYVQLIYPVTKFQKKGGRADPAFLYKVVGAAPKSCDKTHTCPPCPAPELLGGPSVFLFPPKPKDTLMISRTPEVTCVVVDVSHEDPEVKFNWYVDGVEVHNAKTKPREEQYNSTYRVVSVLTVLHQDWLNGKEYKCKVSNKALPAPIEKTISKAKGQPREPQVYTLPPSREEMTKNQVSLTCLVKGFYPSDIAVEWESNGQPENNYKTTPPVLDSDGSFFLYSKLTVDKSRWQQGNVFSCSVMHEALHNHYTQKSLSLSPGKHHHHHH
Briefly: KinExA, FAb equilibrated in solution with IL-1R1-Fc; free FAb captured on IL-1R1 beads. The protocol:
(§4) Firstly either a monomerised FAb was allowed to come to equilibrium with sIL-1R1-Fc (soluble sIL-1R1-Fc), or the IgG was allowed to come to equilibrium with sIL-1R1 (un-tagged). These equilibrated solutions of the interacting molecules were then analysed using KinExA™. 3200 technology. In brief, for each equilibrated sample, the KinExA™. 3200 instrument automatically packed a fresh column of sIL-1R1 conjugated micro-beads. The sample containing antibody (or FAb fragment), antigen, and Ab/antigen (or FAb/antigen) complex (in Dulbecco's PBS, 1 mg mL⁻¹ bovine serum albumin, 0.02% (w/v) sodium azide) was flowed rapidly (0.25 mL/min) through the column to keep the contact time of the sample with the antigen-beads extremely brief. This rapid contact time ensured that, for high affinity (slowly dissociating) interactions, dissociation of the complex was negligible during this short contact time. Free antibody bound to the IL-1R1-beads. A Cy5™ (cyanine) fluorescently labelled secondary antibody, mouse anti-human IgG (heavy and light chain specific) was then passed through the column. Labelled secondary antibody bound to the antibody bound to the column. A buffer wash removed excess label, leaving fluorescence signal on the bead column directly proportional to the amount of free […] in the original sample. […]
A general note: A kinetic exclusion assay measures how much of one partner remains free in solution.

The target in assay [5] is T1, human histidine tagged (HIS) IL1RFc …. The description is as above. Here is the method:
as §4

Assay [6] addresses T3, Human sIL-1R1 (R&D Systems), un-tagged (human, UniProt P14778 18-332, limits assumed).
T3 construct: Bought; also called soluble human IL-1R1
T3 sequence (looked up): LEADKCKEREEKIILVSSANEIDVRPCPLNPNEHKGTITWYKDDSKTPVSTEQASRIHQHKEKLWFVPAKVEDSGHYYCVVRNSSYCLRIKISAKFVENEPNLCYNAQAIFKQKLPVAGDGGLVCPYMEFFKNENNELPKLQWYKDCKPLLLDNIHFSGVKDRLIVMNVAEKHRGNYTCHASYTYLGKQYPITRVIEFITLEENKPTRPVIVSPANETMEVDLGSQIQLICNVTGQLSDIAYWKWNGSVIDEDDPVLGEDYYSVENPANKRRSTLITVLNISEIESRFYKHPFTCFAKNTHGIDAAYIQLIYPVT
As to the kind of experiment: KinExA, IgG equilibrated in solution with un-tagged sIL-1R1; free IgG captured on IL-1R1 beads. The protocol:
as §4

Assay [7] addresses T4, human IL-1R1, endogenous on human cells (HeLa cells; whole blood) (human, UniProt P14778 18-569).
T4 sequence (looked up): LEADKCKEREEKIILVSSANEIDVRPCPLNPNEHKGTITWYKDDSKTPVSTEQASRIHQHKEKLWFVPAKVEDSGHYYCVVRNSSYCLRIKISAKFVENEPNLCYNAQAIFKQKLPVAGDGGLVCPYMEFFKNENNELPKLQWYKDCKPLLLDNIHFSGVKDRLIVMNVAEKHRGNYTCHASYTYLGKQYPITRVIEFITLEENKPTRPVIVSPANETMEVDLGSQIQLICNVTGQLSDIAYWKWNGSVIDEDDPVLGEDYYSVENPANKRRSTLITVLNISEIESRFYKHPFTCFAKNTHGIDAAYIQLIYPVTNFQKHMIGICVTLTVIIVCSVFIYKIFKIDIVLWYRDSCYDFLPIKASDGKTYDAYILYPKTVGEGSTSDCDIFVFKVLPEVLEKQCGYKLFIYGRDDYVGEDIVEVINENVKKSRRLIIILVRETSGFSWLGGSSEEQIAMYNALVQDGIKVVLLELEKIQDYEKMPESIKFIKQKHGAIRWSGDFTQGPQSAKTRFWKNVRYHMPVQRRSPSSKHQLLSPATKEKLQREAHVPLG
Briefly: cell-based or functional assay.

Assay [8] addresses T1, human histidine tagged (HIS) IL1RFc …. Briefly: HTRF receptor-ligand assay, scFv inhibiting HIS FLAG IL-1β binding to human HIS IL1RFc. Here is the method: as §1, §2

B1: Antibody 1 scFv (scFv, V domains shown)
VH: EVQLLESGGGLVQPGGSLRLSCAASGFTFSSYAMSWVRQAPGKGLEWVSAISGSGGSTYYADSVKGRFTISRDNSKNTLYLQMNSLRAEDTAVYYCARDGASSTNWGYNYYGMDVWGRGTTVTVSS
VL: QAVLTQPSSASGTPGQRVTISCSGSSSNIGSNYVFWYQQFPGTAPQLLVKWNNQRPSGVPDRFSGSKSGTSASLAISGLRSEDEADYYCAAWDDSLSGLVFGGGTKLTVL
notes: Tested as purified scFv; also called KENB026 or KENB061 (parent, not resolved)
For B1, the 50% inhibitory concentration (IC50) (in general, the point on the concentration scale where inhibition reaches its midpoint) in assay [1] was around 225 nM.

B2: MoD2a IL1R1 (Fc fusion, human;mouse, UniProt P14778 18-122, looked up, not shown: a dimerising Fc or GST)
chain: LEADKCKEREEKIILVSSANEIDVRPCPLNPNEHKGTITWYKDDSKTPVSTEQASRIHQHKEKLWFVPAKVEDSGHYYCVVRNSSYCLRIKISAKFVENEPNLCYSTQATFPQRLHIAGDGGLVCPYMEFFKNENNELPKLQWYKDCKPLLLDNIHFSGVKDRLIVMNVAEKHRGNYTCHASYTYLGKQYPITRVIEFITLEENKPTRPVIVSPANETMEVDLGSQIQLICNVTGQLSDIAYWKWNGSVIDEDDPVLGEDYYSVENPANKRRSTLITVLNISEIESRFYKHPFTCFAKNTHGIDAAYIQLIYPVTNFQK
notes: range 1-122;range 126-137;range 135-336; also called chimera without human beta strand a2
For B2, in assay [2], the half-maximal inhibitory concentration (IC50) was found to be 4.6 nM. For the same molecule, in assay [3], the “fold higher IC50 than human IL1R1” value was 26 fold.

B3: Antibody 6 FAb (Fab, V domains shown)
VH: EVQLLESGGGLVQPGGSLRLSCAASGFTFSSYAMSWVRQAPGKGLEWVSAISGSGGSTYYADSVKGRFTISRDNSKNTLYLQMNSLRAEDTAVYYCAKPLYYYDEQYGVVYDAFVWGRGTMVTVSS
VL: QSVLTQPPSVSGAPGQRVTISCTGSSSNIGAGYDVHWYQQLPGTAPKLLIYGDTHRPSGVPDRFSGSKSGTSASLVIAGLQAEDEADYYCQSYDTVRLHHVFGGGTKLTVL
notes: Monomeric FAb made by papain digestion of Antibody 6 IgG1TM; also called anti-IL-1R1FAb; monomerised FAb
For B3, the values for the dissociation constant Kd in assay [4] and in assay [5] were 0.0028 nM and 0.0025 nM, respectively.

B4: Antibody 6 IgG1TM (Triple Mutant, 234F, 235E and 331S) (antibody, V domains shown)
VH: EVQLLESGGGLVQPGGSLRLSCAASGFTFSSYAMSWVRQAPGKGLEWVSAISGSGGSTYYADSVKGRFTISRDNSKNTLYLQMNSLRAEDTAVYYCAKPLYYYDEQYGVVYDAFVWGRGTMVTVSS
VL: B3 VL
notes: IgG1 with Fc triple mutant 234F, 235E, 331S (EU index)
For the molecule B4, the Kd (commonly the constant that tells how readily two partners part at equilibrium) in assay [6] was 0.00305 nM. In assay [7], the “Mean IC50, whole blood assay, IL-1beta induced release of IL-6” value came out at 311000 nM.

B5: Antibody 4 scFv (scFv, V domains shown)
VH: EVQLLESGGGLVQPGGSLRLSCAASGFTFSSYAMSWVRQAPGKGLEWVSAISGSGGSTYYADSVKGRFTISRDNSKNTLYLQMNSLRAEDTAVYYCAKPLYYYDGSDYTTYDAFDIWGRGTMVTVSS
VL: B3 VL with V96S, R97L, L98S, H99G, H100S, V101L
notes: as for B1
Turning to B5, the concentration for half-maximal inhibition (IC50) in assay [8] turned out to be 22.5 nM.
